Assay results reported in patent US20050148511A1.

Experiments:
[1] = biological target: FGFR1 expressed on FDCP cells; assay: cell-based or functional assay
[2] = biological target: FGFR3IIIc expressed on FDCP cells; assay: cell-based or functional assay

| Substance | EC50 (effective concentration), mitogenicity on FGFR-transfected FDCP cells [1] [ng/mL] | EC50 (effective concentration), mitogenicity on FGFR-transfected FDCP cells [2] [ng/mL] |
| --- | --- | --- |
| FGF2(3,5Q)-N111G (ligand) | 0.35 to 1 | 0.3 to 0.65 |
| wild type FGF-2 (from UniProt P09038 1-155) (ligand) | 2.65 | 4.2 |
